B1: GAL4 DNA-binding domain-fchd540 fusion (other, UniProt P04386 1-147, looked up)
chain: MKLLSSIEQACDICRLKKLKCSKEKPKCAKCLKNNWECRYSPKTKRSPLTRAHLTEVESRLERLEQLFLLIFPREDLDMILKMDSLQDIKALLTGLFVQDNVNKDAVTDRLASVETDMPLTLRQHRISATSSSEESSNKGQRQLTVSMFRTKRSALVRRLWRSRAPGGEDEEEGAGGGGGGGELRGEGATDSRAHGAGGGGPGRAGCCLGKAVRGAKGHHHPHPPAAGAGAAGGAEADLKALTHSVLKKLKERQLELLLQAVESRGGTRTACLLLPGRLDCRLGPGAPAGAQPAQPPSSYSLPLLLCKVFRWPDLRHSSEVKRLCCCESYGKINPELVCCNPHHLSRLCELESPPPPYSRYPMDFLKPTADCPDAVPSSAETGGTNYLAPGGLSDSQLLLEPGDRSHWCVVAYWEEKTRVGRLYCVQEPSLDIFYDLPQGNGFCLGQLNSDNKSQLVQKVRSKIGCGIQLTREVDGVWVYNRSSYPIFIKSATLDNPDSRTLLVHKVFPGFSIKAFDYEKAYSLQRPNDHEFMQQPWTGFTVQISFVKGWGQCYTRQFISSCPCWLEVIFNSR
notes: Yeast two-hybrid bait; also called fchd540 bait protein; pGBT9-fchd540
B2: GAL4 DNA-binding domain fusion to Drosophila MAD (other, UniProt P04386 1-147, looked up)
chain: MKLLSSIEQACDICRLKKLKCSKEKPKCAKCLKNNWECRYSPKTKRSPLTRAHLTEVESRLERLEQLFLLIFPREDLDMILKMDSLQDIKALLTGLFVQDNVNKDAVTDRLASVETDMPLTLRQHRISATSSSEESSNKGQRQLTVSMDTDDVESNTSSAMSTLGSLFSFTSPAVKKLLGWKQGDEEEKWAEKAVDSLVKKLKKRKGAIEELERALSCPGQPSKCVTIPRSLDGRLQVSHRKGLPHVIYCRVWRWPDLQSHHELKPLELCQYPFSAKQKEVCINPYHYKRVESPVLPPVLVPRHSEFAPGHSMLQFNHVAEPSMPHNVSYSNSGFNSHSLSTSNTSVGSPSSVNSNPNSPYDSLAGTPPPAYSPSEDGNSNNPNDGGQLLDAQMGDVAQVSYSEPAFWASIAYYELNCRVGEVFHCNNNSVIVDGFTNPSNNSDRCCLGQLSNVNRNSTIENTRRHIGKGVHLYYVTGEVYAECLSDSAIFVQSRNCNYHHGFHPSTVCKIPPGCSLKIFNNQEFAQLLSQSVNNGFEAVYELTKMCTIRMSFVKGWGAEYHRQDVTSTPCWIEIHLHGPLQWLDKVLTQMGSPHNAISSVS
notes: Yeast two-hybrid bait; also called Dros; MAD; MAD bait protein
B3: GAL4 DNA-binding domain fusion to rchd534 (other, UniProt P04386 1-147, looked up)
chain: MKLLSSIEQACDICRLKKLKCSKEKPKCAKCLKNNWECRYSPKTKRSPLTRAHLTEVESRLERLEQLFLLIFPREDLDMILKMDSLQDIKALLTGLFVQDNVNKDAVTDRLASVETDMPLTLRQHRISATSSSEESSNKGQRQLTVSMSRMGKPIETQKSPPPPYSRLSPRDEYKPLDLSDSTLSYTETEATNSLITAPGEFSDASMSPDATKPSHWCSVAYWEHRTRVGRLYAVYDQAVSIFYDLPQGSGFCLGQLNLEQRSESVRRTRSKIGFGILLSKEPDGVWAYNRGEHPIFVNSPTLDAPGGRALVVRKVPPGYSIKVFDFERSGLQHAPEPDAADGPYDPNSVRISFAKGWGPCYSRQFITSCPCWLEILLNNPR
notes: Yeast two-hybrid bait; also called rchd534 bait protein
B4: tchvR4A (GAL4 activation domain fusion to amino acids 25-235 of rchd534) (other, not shown: large carriers)
chain: DEYKPLDLSDSTLSYTETEATNSLITAPGEFSDASMSPDATKPSHWCSVAYWEHRTRVGRLYAVYDQAVSIFYDLPQGSGFCLGQLNLEQRSESVRRTRSKIGFGILLSKEPDGVWAYNRGEHPIFVNSPTLDAPGGRALVVRKVPPGYSIKVFDFERSGLQHAPEPDAADGPYDPNSVRISFAKGWGPCYSRQFITSCPCWLEILLNNPR
notes: Library clone from the human breast two-hybrid library; also called tchvR4A fish protein
B5: GAL4 transcriptional activation domain-rchd534 fusion (other, human, UniProt O43541-2 1-235, looked up, not shown: large carriers)
chain: MSRMGKPIETQKSPPPPYSRLSPRDEYKPLDLSDSTLSYTETEATNSLITAPGEFSDASMSPDATKPSHWCSVAYWEHRTRVGRLYAVYDQAVSIFYDLPQGSGFCLGQLNLEQRSESVRRTRSKIGFGILLSKEPDGVWAYNRGEHPIFVNSPTLDAPGGRALVVRKVPPGYSIKVFDFERSGLQHAPEPDAADGPYDPNSVRISFAKGWGPCYSRQFITSCPCWLEILLNNPR
notes: Yeast two-hybrid fish; also called rchd534 fish protein; Smad6
B6: tchv03A (GAL4 activation domain fusion to amino acids 17-235 of rchd534) (other, not shown: large carriers)
chain: PYSRLSPRDEYKPLDLSDSTLSYTETEATNSLITAPGEFSDASMSPDATKPSHWCSVAYWEHRTRVGRLYAVYDQAVSIFYDLPQGSGFCLGQLNLEQRSESVRRTRSKIGFGILLSKEPDGVWAYNRGEHPIFVNSPTLDAPGGRALVVRKVPPGYSIKVFDFERSGLQHAPEPDAADGPYDPNSVRISFAKGWGPCYSRQFITSCPCWLEILLNNPR
notes: Library clone from the human breast two-hybrid library; also called tchv03A fish protein
B7: GAL4 activation domain fusion to SV40 (other)
chain: PTYGTDEWEQWWNAFNEENLFCSEEMPSSDDEATADSQHSTPPKKKRKVEDPKDFPSELLSFLSHAVFSNRTLACFAIYTTKEKAALLYKKIMEKYSVTFISRHNSYNHNILFFLTPHRHRVSAINNYAQKLCTFSFLICKGVNKEYLMYSALTRDPFSVIEESLPGGLKEHDFNPEEAEETKQVSWKLVTEYAMETKCDDVLLLLGMYLEFQYSFEMCLKCIKKEQPSHYKYHEKHYANAAIFADSKNQKTICQQAVDTVLAKKRVDSLQLTREQMLTNRFNDLLDRMDIMFGSTGSADIEEWMAGVAWLHCLLPKMDSVVYDFLKCMVYNIPKKRYWLFKGPIDSGKTTLAAALLELCGGKALNVNLPLDRLNFELGVAIDQFLVVFEDVKGTGGESRDLPSGQGINNLDNLRDYLDGSVKVNLEKKHLNKRTQIFPPGIVTMNEYSVPKTLQARFVKQIDFRPKDYLKHCLERSEFLLEKRIIQSGIALLLMLIWYRPVAEFAQSIQSRIVEWKERLDKEFSLSVYQKMKFNVAMGIGVLDWLRNSDDDDEDSQENADKNEDGGEKNMEDSGHETGIDSQSQGSFQAPQSSQSVHDHNQPYHICRGFTCFKKPPTPPPEPET
notes: Two-hybrid control

Target: B7
Experiment: yeast two-hybrid mating assay (HIS3 and lacZ reporters)
Excerpt: (§1) Yeast expression plasmids encoding the GAL4 DNA-binding domain either alone or fused in frame to fchd540, rchd534, Drosophilia MAD, DPC4, or p53 were transformed into MATa two-hybrid screening strain HF7c. Yeast expression plasmnids encoding the GAL4 transcriptional activation domain alone and GAL4 activation domain fusions to rchd534 and SV40 were transformed into MATα two-hybrid screening strain Y1 87. p53 and SV40 interact with each other and should not interact with the experimental proteins. The HF7c transformants were propagated as stripes on semisolid synthetic complete medium lacking L-tryptophan and the Y187 transformants were grown as stripes on semisolid synthetic complete medium lacking L-leucine. Both sets of stripes were replica plated in the form of a grid onto a single rich YPAD plate and the haploid strains of opposite mating types were allowed to mate overnight at 30° C. The yeast strains on the mating plate were then replica plated to a synthetic complete plate lacking L-leucine and L-tryptophan to select for diploids and incubated at 30° C. overnight. Diploid strains on the synthetic complete plate lacking L-leucine and L-tryptophan were replica plated to a synthetic complete plate lacking L-leucine, L-tryptophan, and L-histidine to assay HIS3 expression and a paper filter on a synthetic complete plate lacking L-leucine and L-tryptophan. The next day the paper filter was subjected to the paper filter beta-galactosidase assay to measure expression of the lacZ reporter gene. HIS3 expression was scored after 3 days of growth at 30° C.
(§2) It was confirmed that these rchd534 cDNAs encode proteins that physically interact specifically with fchd540. Yeast expression plasmids encoding the GAL4 DNA-binding domain either alone or fused in frame to fchd540, rchd534, Drosophila MAD, DPC4, and p53 were transformed into MATa two-hybrid screening strain HF7c. Yeast expression plasmids encoding the GAL4 transcriptional activation domain (GAL4 AD) alone and GAL4 activation domain fusions to tchv03a, tchvR4A and SV40 were transformed into MATα two-hybrid screening strain Y1 87. p53 and SV40 interact with each other and should not interact with the experimental proteins. The HF7c transformants were propagated as stripes on semi-solid synthetic complete medium lacking […].

Binder	binding result
B1	no binding
B2	no binding
B3	no binding

Target: B2
Experiment: as above
Excerpt: as §1, §2

Binder	binding result
B4	no binding
B5	no binding
B6	no binding

Target: T1, GAL4 DNA-binding domain fusion to DPC4 (UniProt P04386 1-147; Q13485 1-552, limits assumed)
T1 construct: Yeast two-hybrid bait; also called DPC4 bait protein
Experiment: as above
Excerpt: as §1, §2

Binder	binding result
B7	no binding
B4	no binding
B5	no binding
B6	no binding

Target: B3
Experiment: as above
Excerpt: as §1, §2

Binder	binding result
B4	no binding
B6	no binding

Source: patent US6359194 (Takeda / Millennium, dated 2002)
